Laboratory results reported in paper PMC314469, “Protein Interaction Networks by Proteome Peptide Scanning” (PLoS Biology, 2004).

Experiments:
Assay in all cases: SPOT array
[1] = biological target: T1, Boi1 SH3 (BOI1_YEAST), P38041
T1 chain: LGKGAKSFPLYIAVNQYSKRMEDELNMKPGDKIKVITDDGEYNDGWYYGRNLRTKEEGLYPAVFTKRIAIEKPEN

[2] = biological target: T2, Myo5 SH3 (MYO5_YEAST), Q04439
T2 chain: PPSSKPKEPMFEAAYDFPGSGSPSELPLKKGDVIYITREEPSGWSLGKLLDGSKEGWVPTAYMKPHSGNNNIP

[3] = biological target: T3, Boi2 SH3 (BOI2_YEAST), P39969
T3 chain: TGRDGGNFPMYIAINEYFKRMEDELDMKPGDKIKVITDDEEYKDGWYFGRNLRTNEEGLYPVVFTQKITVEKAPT

[4] = biological target: T4, Rvs167 SH3 (RV167_YEAST), P39743
T4 chain: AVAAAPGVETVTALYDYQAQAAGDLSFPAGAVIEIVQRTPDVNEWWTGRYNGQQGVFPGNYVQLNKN

[5] = biological target: T5, Yfr024 SH3 (LSB3_YEAST), P43603
T5 chain: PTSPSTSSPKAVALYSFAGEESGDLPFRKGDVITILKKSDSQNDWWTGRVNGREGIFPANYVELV

[6] = biological target: Sho1 SH3 (SHO1_YEAST), P40073
[7] = biological target: T6, Yhr016c SH3 (YSC84_YEAST), P32793
T6 chain: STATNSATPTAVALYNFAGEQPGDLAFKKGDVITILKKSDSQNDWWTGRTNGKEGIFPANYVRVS

Sequence of Sho1 SH3 (SHO1_YEAST), P40073 (P40073 295-366): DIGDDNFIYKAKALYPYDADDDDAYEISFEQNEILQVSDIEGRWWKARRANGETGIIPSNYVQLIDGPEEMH

Binder | normalised SPOT signal, Boehringer light units (BLU); mean over the file's lines of this peptide [1] | normalised SPOT signal, Boehringer light units (BLU); mean over the file's lines of this peptide [2] | normalised SPOT signal, Boehringer light units (BLU); mean over the file's lines of this peptide [3] | normalised SPOT signal, Boehringer light units (BLU); mean over the file's lines of this peptide [4] | normalised SPOT signal, Boehringer light units (BLU); mean over the file's lines of this peptide [5] | normalised SPOT signal, Boehringer light units (BLU); mean over the file's lines of this peptide [6] | normalised SPOT signal, Boehringer light units (BLU); mean over the file's lines of this peptide [7]
LDPGKNTPGLPEET [YAL048C 610-623] | 37.7 | 156 | 126 | 33.4 | 36.6 | -0 | 15.3
LAAHKTKPSIPPKK [YPR171W 350-363] | 477 | 249 | 18.8 | 16.5 | 1730 | 76.5 | 36
LDVRRIYPKGPLLV [YIL113W 50-63] | 4730 | 232 | 10.8 | 34.3 | 157 | 131 | 32.3
LDKGKHVPSKPVSN [YKL054C 145-158] | 364 | 201 | 12.7 | 60.9 | 18.1 | 76.4 | 4.8
LAYERPLPDLPSTI [YKR027W 747-760] | 41.8 | 132 | 14.3 | 3530 | 4460 | 64100 | 8470
LDTHKESPLRPKVR [YKR003W 305-318] | 2820 | 199 | 18.9 | 34.1 | 58.4 | 46.9 | 32.8
LDLSKYGPLPPSRA [YLR143W 384-397] | 1630 | 154 | 20.4 | 207 | 359 | 78.9 | 256
KYIIKTEPESPEED [YLR133W 510-523] | 100 | 246 | 39.6 | 34 | 6.9 | 55.5 | 34.1
KYSFKLVPPQPGSK [YBL085W 849-862] | 198 | 219 | 20 | 40.4 | 104 | 70.4 | 29.7
LASDKGLPMIPAFV [YCL040W 56-69] | 94.4 | 79.9 | 134 | 51.5 | 48.3 | 15200 | 62.8
LAPKREAPKPPANT [YJL095W 802-815] | 179 | 116000 | 28.5 | 69.8 | 47.5 | 71.2 | 29.7
LDSMKNLPLNPSKK [YDL027C 309-322] | 178 | 268 | 41.3 | 72.9 | 348 | 8000 | 78.8
LAGIRLVPVLPILL [YLR235C 75-88] | 63.1 | 152 | 22.4 | 12800 | 2480 | 22.2 | 493
